Laboratory results from patent publication US20060057652A1.

Molecular target: anaphase promoting complex subunit 1 (APC1) (Homo sapiens) (UniProt Q9H1A4)
Assay: cell-based or functional assay

Chain of anaphase promoting complex subunit 1 (APC1) (Homo sapiens) (Q9H1A4 whole entry, one chain of several): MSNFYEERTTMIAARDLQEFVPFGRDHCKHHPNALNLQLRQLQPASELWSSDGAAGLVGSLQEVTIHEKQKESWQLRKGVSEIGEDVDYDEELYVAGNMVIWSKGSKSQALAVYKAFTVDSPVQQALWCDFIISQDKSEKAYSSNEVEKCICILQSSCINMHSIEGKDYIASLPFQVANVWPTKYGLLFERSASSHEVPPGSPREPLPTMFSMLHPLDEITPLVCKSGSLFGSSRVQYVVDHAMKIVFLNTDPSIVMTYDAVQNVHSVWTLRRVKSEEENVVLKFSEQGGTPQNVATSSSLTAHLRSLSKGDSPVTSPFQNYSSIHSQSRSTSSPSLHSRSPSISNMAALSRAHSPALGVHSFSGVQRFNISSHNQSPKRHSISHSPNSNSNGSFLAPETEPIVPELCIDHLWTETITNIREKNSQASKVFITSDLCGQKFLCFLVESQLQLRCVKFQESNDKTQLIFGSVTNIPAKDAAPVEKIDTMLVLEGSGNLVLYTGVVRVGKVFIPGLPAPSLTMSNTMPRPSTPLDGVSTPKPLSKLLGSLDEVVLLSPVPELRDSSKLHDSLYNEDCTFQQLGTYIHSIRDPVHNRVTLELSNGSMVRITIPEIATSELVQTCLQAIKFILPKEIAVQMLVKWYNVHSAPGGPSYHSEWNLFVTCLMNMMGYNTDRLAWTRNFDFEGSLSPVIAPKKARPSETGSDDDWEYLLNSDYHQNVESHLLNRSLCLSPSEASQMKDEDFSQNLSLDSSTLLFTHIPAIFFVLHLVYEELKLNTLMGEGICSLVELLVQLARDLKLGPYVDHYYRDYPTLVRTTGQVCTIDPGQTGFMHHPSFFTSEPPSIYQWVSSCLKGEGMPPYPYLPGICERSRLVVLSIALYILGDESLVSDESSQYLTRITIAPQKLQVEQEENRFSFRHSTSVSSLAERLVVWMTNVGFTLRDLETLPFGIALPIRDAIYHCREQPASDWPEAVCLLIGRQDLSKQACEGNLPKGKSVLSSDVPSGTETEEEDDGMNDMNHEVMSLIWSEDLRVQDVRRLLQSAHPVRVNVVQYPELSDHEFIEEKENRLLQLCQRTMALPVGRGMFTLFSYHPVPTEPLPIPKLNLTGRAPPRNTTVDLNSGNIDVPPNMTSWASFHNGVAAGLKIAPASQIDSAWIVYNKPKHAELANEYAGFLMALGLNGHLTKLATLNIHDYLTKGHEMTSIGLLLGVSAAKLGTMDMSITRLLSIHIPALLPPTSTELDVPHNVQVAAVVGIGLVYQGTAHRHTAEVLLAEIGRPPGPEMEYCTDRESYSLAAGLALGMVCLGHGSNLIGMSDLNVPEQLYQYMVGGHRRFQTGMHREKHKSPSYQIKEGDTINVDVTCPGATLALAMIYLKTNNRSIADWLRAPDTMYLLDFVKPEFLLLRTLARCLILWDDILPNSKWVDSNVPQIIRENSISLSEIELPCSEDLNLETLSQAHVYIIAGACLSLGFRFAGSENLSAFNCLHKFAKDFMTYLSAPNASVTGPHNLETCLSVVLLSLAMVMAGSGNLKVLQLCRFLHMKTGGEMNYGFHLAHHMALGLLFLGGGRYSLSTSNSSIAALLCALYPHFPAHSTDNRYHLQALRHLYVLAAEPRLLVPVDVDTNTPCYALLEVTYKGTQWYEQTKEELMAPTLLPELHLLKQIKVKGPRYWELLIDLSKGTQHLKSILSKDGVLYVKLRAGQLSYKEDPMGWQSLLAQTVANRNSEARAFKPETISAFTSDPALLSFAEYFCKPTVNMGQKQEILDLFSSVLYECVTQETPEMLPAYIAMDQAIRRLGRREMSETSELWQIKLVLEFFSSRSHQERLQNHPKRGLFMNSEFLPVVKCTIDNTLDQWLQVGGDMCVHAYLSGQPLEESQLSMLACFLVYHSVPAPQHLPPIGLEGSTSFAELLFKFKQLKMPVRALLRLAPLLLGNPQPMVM

In the case of “GFP-Ap(42-121) (from UniProt Q99152 42-121)”, the percent of wild-type killing activity (apoptotic morphology, H1299 cells) (percent of wild-type killing activity) is reported as 67.

For “GFP-Ap(82-121) (from UniProt Q99152 82-121)”, the percent of wild-type killing activity (apoptotic morphology, H1299 cells) (percent of wild-type killing activity) was 55.
